Assay results published in patent US20050124794A1, “Cell surface tropomyosin as a target of angiogenesis inhibition” (priority 2002, published 2005).
Where “and” joins values, the source holds several entries; their conditions need not be identical. Identical values can stand only once. Entries after “also recorded” stand apart in the source; their conditions may differ.

Key:
proliferating ECs [1] = experiment: Binding of biotin-HKa to ECs; design: species or system human; settings: Zn2+-dependent (10 μM Zn2+), nonlinear regression, read-out: Kd of specific binding of HKa to proliferating ECs
Method: Binding of HKa to ECs and purified Tpm. Binding of HKa to ECs was measured as described by Hasan, A A et al. (1995) J. Biol. Chem. 270:19256-19261. Briefly, 3×10^4 HLVEC/ml were cultured in 96-well microplates, then washed and incubated with increasing concentrations of biotin-HKa for two hours, at 4° C. After brief washing, cells were incubated sequentially with a 1:750 dilution of streptavidin peroxidase and the peroxidase substrate, turbo-TMB (Pierce), prior to measurement of A490. Absolute amounts of bound HKa were determined by comparison of A490 values with a standard curve prepared using known amounts of biotin-HKa Binding was measured in the presence (to determine total binding) and absence (to determine non-specific binding) of 10 μM Zn^2+, and specific binding defined as the difference between total and non-specific binding (van Iwaarden, F et al. (1988) J. Biol. Chem. 263:4698-4703). The dissociation constant (Kd) was determined by fitting the saturation isotherm by nonlinear regression using the Prism software program (GraphPad, San Diego, Calif.).
In selected experiments, the ability of mAb TM-311 to inhibit the binding of HKa to cells was assessed by incubating biotin-HKa with ECs in the presence of increasing concentrations of antibody. […]

HUVEC = experiment: EC proliferation assay (growth factor-induced); type: cell-based, human; settings: bFGF 10 ng/ml; 20 nM HKa, 60 nM HKa domain 5
Method: EC proliferation assays. The effect of HKa on ECs in the absence or presence of mAb TM-311 was initially assessed using a proliferation assay, as described in Zhang et al., supra. Relative numbers of cells remaining in each well of a 96 well microplate after incubation for 48 hours in the absence or presence of HKa were determined using the Aqueous® cell proliferation assay (Promega, Madison, Wis.). Results are presented as the percent inhibition of bFGF-induced EC proliferation, which essentially reflects the extent of HKa-induced EC apoptosis. Though bFGF was used as the EC mitogen in most studies of the studies described herein, identical results were obtained using VEGF.

chicken gizzard Tpm [2] = target: T1, chicken gizzard Tpm (Gallus gallus, UniProt P19352); experiment: Binding of HKa to purified Tpm immobilized in 96 well microplates; settings: biotin-HKa, Zn2+-dependent (10 μM Zn2+), nonlinear regression; read-out: Kd of binding of HKa to purified Tpm
T1 construct: purchased Sigma; host or cells: chicken gizzard (tissue-derived, as the name says)
T1 sequence (P19352 1-284 isoform P19352-2): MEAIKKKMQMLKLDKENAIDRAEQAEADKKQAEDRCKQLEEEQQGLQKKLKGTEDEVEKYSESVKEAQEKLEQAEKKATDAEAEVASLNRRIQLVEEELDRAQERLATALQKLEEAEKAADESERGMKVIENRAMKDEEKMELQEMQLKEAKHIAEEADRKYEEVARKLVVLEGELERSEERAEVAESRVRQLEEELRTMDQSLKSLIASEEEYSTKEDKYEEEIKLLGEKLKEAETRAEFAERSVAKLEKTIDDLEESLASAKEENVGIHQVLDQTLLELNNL
T1 sequence (P04268 1-284 isoform P04268-2 F73S/I172L/T199L/N203E/L204A partner): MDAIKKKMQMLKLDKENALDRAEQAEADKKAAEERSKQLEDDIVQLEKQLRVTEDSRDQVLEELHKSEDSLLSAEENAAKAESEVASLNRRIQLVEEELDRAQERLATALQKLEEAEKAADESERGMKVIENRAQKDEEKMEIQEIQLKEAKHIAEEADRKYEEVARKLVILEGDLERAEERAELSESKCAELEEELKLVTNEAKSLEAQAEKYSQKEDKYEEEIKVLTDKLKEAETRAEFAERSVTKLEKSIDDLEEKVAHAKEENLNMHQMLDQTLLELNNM
Method: To measure the binding of HKa to purified Tpm, 96 well microplates were coated with 20 μg/ml of chicken gizzard Tpm (Sigma), or bovine serum albumin (BSA), as a control. Wells were then blocked by incubation with phosphate buffered saline containing 5% nonfat milk, and incubated with increasing concentrations of HKa (0.01-20 nM) for 2 hours. Specifically-bound HKa was quantitated as described for cell binding assays (van Iwaarden et al., supra, and by assessing the ability of a 100-fold molar excess of unlabeled HKa to compete with biotin-HKa for binding.
In selected experiments, the ability of mAb TM-311 and recombinant HKa D5 to inhibit the binding of biotin-HKa to Tpm was assessed. These studies allowed determination of the Kd for binding of HKa D5 to Tpm using the equation: Kd (D5)=IC50/(1+[HKa]/Kd (HKa)) where IC50 is the concentration of HKa D5 that inhibited HKa binding by 50%, and Kd(HKa) is the Kd for binding of HKa to Tpm.

[3] = tested on: bFGF-induced angiogenesis in the chick chorioallantoic membrane; experiment: Chick chorioallantoic membrane (CAM) assay; type: in vivo
Method: This assay is performed essentially as described by Nguyen et al (Microvascular Res. 47:31-40 (1994)). A mesh containing either angiogenic factors (bFGF) or tumor cells plus inhibitors is placed onto the CAM of an 8-day old chick embryo and the CAM observed for 3-9 days after implantation of the sample. Angiogenesis is quantitated by determining the percentage of squares in the mesh which contain blood vessels.
Chick chorioallantoic membrane assay. […] Three day-old fertilized White Leghorn chicken eggs were cracked in sterile Petri dishes. Embryos were cultured at 37° C., under 4% CO2, until day 7, at which time a 3.0 mm filter disc containing either 30 ng bFGF (positive control), 30 ng bFGF and 10 μg HKa or 30 ng bFGF, 10 μg HKa and 20 μg of mAb TM-311 was placed on the CAM. Each experimental condition was tested in at least 6 eggs. On day 10, embryos were photographed using a SPOT digital camera Angiogenesis was quantitated by counting the number of neovessels in direct contact with the filter disc.

chicken gizzard Tpm [4] = target: T1, chicken gizzard Tpm; experiment: Binding to immobilized Tpm in a 96 well plate (biotin-HKa competition or direct binding); settings: plate coated with 200 ng chicken gizzard Tpm, 10 μM ZnCl2
Method: Plates are coated at room temperature with chicken gizzard Tpm (Sigma) in Tris buffer-saline (TBS) (200 ng/well). After incubation for 2 hours, wells are washed with TBS, then 1% BSA/TBS/Tween-20 is added to each well and incubate at 37° C. for two hours. HKa (Enzyme Laboratories) that had been previously biotinylated with EZ-Link (Pierce) according to the manufacturers instructions, is added to the plate at a concentration of 10 nM together with ZnCl2 (10 μM) and the appropriate concentration of the protein, domain or peptide competitor. The plates are incubated at room temperature and then washed with TBS/Tween-20. Avidin-HRP is added, incubated for 20 minutes at room temperature, washed with TBS/Tween-20 and the chromogenic substrate is added. The reaction is stopped with sulfuric acid and the plate read at 490 nm.
The IC50 for the displacement of biotinylated-HKa for the peptides shown in Table 5 was determined as follows: 10 nM biotin-HKa is added to a 96 well plate previously coated with 200 ng of chicken gizzard Tpm in the presence of 10 μM ZnCl2. Increasing amounts of the peptides are added to the wells. The remaining biotin-HKa bound to Tpm was detected using avidin-HRP and a chromogenic substrate. A Kd was determined by non-linear regression analysis of the empirical data. The effect on the Matrigel Plug assay was determined as follows: Matrigel (0.5 mL) containing 400 ng/ml of bFGF, 50 μg/ml heparin with or without the peptide (300 μM) or saline buffer are injected in the flanks of a mouse. After five days, the plugs are removed and the plugs scanned.
The N-terminus of the pentapeptide HHPHG has been derivatized (capped) in an attempt to increase the pentapeptides' affinity to Tpm by increasing productive molecular contacts (or interactions). […] The IC50 for the displacement of biotinylated-HKa for the capped peptides shown in the table was determined as follows: 10 nM biotin-HKa was added to a 96 well plate previously coated with 200 ng of chicken gizzard Tpm in the presence of 10 μM ZnCl2. Increasing amounts of the peptides were added to the wells. The remaining biotin-HKa bound to Tpm was detected using avidin-HRP and a chromogenic substrate. A Kd was determined by non-linear regression analysis of the empirical data

proliferating ECs [5] = experiment: Assessment of EC apoptosis (DAPI, TUNEL, DNA cleavage); type: cell-based, human
Method: Assessment of EC apoptosis. The effect of TM-311 on HKa- or HKa D5-induced EC apoptosis was determined using several methods. First, staining of control or HKa exposed ECs using 4′, 6′-diamidino-2-phenylindole dihydrochloride (DAPI) (Molecular Probes, Eugene Oreg.) was employed to highlight apoptosis-associated changes in nuclear morphology. Second, apoptosis was assessed by TUNEL staining, using the Apo-Direct kit (Pharmingen, San Diego, Calif.). Cells were counterstained with propidium iodide to define all nuclei, and the percentage of apoptotic CUNEL positive) nuclei determined by manual counting. Finally, to assess endothelial apoptosis by endonucleolytic cleavage of DNA, EC DNA was isolated and separated using 0.8% agarose gel electrophoresis. Gels were stained with ethidium bromide, and DNA visualized using UV light.

B1: HKa: Two-chain high molecular weight kininogen, purchased from Enzyme Research Laboratories (protein)
chain 1: QESQSEEIDCNDKDLFKAVDAALKKYNSQNQSNNQFVLYRITEATKTVGSDTFYSFKYEIKEGDCPVQSGKTWQDCEYKDAAKAATGECTATVGKRSSTKFSVATQTCQITPAEGPVVTAQYDCLGCVHPISTQSPDLEPILRHGIQYFNNNTQHSSLFMLNEVKRAQRQVVAGLNFRITYSIVQTNCSKENFLFLTPDCKSLWNGDTGECTDNAYIDIQLRIASFSQNCDIYPGKDFVQPPTKICVGCPRDIPTNSPELEETLTHTITKLNAENNATFYFKIDNVKKARVQVVAGKKYFIDFVARETTCSKESNEELTESCETKKLGQSLDCNAEVYVVPWEKKIYPTVNCQPLGMISLMK
chain 2: SSRIGEIKEETTVSPPHTSMAPAQDEERDSGKEQGHTRRHDWGHEKQRKHNLGHGHKHERDQGHGHQRGHGLGHGHEQQHGLGHGHKFKLDDDLEHQGGHVLDHGHKHKHGHGHGKHKNKGKKNGKHNGWKTEHLASSSEDSTTPSAQTQEKTEGPTPIPSLAKPGVTVTFSDFQDSDLIATMMPPISPAPIQSDDDWIPDIQTDPNGLSFNPISDFPDTTSPKCPGRPWKSVSEINPTTQMKESYYFDLTDGLS
In the case of B1, the Kd (proliferating ECs [1]) is reported as ~2.5 nM and ~2.6 nM, the “inhibition of bFGF-induced EC proliferation (in words)” value (HUVEC) is reported as “inhibition” and the Kd (chicken gizzard Tpm [2]) is reported as ~2.6 nM and ~2.5 nM. The “inhibition of angiogenesis induced by bFGF-containing filter discs, vessel counts” value ([3]; 30 ng bFGF, 10 μg HKa) was “about 85%”, the “inhibition of bFGF-induced angiogenesis in the CAM (in words)” value ([3]; in vivo) was “inhibited basic FGF-induced angiogenesis; also recorded: antiangiogenic activity” and the Kd (chicken gizzard Tpm [4]) was ~1 nM. The “induction of EC apoptosis (in words)” value (proliferating ECs [5]) was “induction of EC apoptosis”.
